We go through two molecules from patent EP4751739A1 (Jiangsu Hengrui Pharmaceuticals Co., Ltd., dated 2025).

Broadly, the Kd is the equilibrium constant for the complex coming apart.

Some results are limits rather than exact numbers.

In test [1] the target is T1, Cynomolgus monkey c-Met protein (cynomolgus monkey).
T1 construct: Soluble analyte in Biacore; also called cyno-c-Met
Kind of test: SPR (Biacore 8K), ADC captured on Protein A chip, c-Met protein as analyte, 25 °C, 1:1 Langmuir fit. (SPR reads the build-up and loss of mass on a sensor chip optically.)

Test [2] has as its target T2, human c-Met on tumor cell lines (human, UniProt P08581 25-1390). In words: cell-based or functional assay.
The target of test [3] is T2, human c-Met on tumor cell lines. Kind of test: cell-based or functional assay. The source holds these as a separate data set.
For test [4], the target named is T1, Cynomolgus monkey c-Met protein. In words: SPR (Biacore 8K), antibody captured on Protein A chip, c-Met protein as analyte, 25 °C, 1:1 Langmuir fit.

T2 sequence (P08581 25-1390): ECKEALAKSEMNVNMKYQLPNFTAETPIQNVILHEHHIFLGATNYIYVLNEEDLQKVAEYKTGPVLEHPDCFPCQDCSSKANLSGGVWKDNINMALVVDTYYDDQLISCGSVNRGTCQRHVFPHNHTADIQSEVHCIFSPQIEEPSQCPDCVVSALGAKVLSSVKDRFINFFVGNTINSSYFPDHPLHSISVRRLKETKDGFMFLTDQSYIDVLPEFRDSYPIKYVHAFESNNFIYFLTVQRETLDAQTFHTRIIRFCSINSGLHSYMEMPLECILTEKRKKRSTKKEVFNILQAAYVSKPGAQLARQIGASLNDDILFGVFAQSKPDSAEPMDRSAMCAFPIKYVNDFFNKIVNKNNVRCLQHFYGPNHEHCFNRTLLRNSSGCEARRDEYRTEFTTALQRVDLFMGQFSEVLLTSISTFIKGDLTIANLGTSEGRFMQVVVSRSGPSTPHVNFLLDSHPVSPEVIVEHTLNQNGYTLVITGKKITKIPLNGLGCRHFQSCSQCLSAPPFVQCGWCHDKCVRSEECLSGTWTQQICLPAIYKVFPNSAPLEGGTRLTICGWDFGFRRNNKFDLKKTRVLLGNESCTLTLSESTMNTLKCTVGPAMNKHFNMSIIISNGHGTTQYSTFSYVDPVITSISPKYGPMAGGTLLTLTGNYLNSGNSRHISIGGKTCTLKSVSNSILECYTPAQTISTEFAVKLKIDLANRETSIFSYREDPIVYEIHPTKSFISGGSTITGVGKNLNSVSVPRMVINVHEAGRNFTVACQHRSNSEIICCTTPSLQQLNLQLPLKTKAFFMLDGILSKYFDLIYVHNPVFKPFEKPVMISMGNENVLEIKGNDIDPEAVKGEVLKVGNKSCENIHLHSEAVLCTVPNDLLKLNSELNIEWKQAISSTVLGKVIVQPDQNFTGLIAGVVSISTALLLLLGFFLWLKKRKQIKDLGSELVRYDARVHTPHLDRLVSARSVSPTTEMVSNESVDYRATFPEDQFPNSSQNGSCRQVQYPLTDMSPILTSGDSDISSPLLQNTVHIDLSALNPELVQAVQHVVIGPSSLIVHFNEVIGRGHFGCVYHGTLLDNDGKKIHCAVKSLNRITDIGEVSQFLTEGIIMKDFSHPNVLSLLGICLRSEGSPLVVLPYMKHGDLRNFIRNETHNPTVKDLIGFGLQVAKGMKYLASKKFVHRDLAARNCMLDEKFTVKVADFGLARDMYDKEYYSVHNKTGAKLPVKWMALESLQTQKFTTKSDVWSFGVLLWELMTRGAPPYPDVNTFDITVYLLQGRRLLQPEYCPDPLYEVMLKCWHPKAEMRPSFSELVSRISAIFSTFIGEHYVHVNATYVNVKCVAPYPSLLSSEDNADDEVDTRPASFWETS

B1: antibody-drug conjugate-1 (ADC-1) (antibody, human IgG2, kappa, V domains shown)
VH: QVQLVESGGGVVQPGRSLRLSCAASGFSLSNYGVHWVRQAPGKGLEWLAVIWSGGSTNYAAAFVSRLTISKDNSKNTVYLQMNSLRAEDTAVYYCARNHDNPYNYAMDYWGQGTTVTVSS
VL: DIVLTQSPDSLAVSLGERATINCRADKSVSTSTYNYLHWYQQKPGQPPKLLIYLASNLASGVPDRFSGSGSGTDFTLTISSLQAEDVAVYYCQHSRDLPPTFGQGTKLEIKR
modifications: compound 9-A may also be coupled to reduced cysteines of this chain; positions not given; compound 9-A (maleimidocaproyl-GGFG linker with exatecan derivative) coupled to cysteines of the TCEP-reduced antibody; positions not given; target DAR n = 5.3, found n = 4.7-5.9 per antibody
In test [1], B1 gave an equilibrium dissociation constant (Kd) of 48500 pM. In test [2], the “IC50 for the inhibition of proliferation, EBC-1 cells (c-Met expression High), CellTiter Glo, 6 days” value amounted to 65 pM; the “IC50 for the inhibition of proliferation, HCT116 cells (c-Met expression Low), CellTiter Glo, 6 days” value was 23900 pM; the “IC50 for the inhibition of proliferation, Hs 746T cells (c-Met expression High), CellTiter Glo, 6 days” value stood at 125 pM; the “IC50 for the inhibition of proliferation, MKN-45 cells (c-Met expression High), CellTiter Glo, 6 days” value is 55 pM. In addition, in test [2], the “IC50 for the inhibition of proliferation, NCI-H441 cells (c-Met expression Moderate), CellTiter Glo, 6 days” value came out at 480 pM; the “IC50 for the inhibition of proliferation, NCI-H1299 cells (c-Met expression Low), CellTiter Glo, 6 days” value was above 200000 pM; the “IC50 for the inhibition of proliferation, NCI-H1993 cells (c-Met expression High), CellTiter Glo, 6 days” value turned out to be 181 pM; the “IC50 for the inhibition of proliferation, NCI-N87 cells (c-Met expression Low), CellTiter Glo, 6 days” value was above 200000 pM. Moreover, in test [2], the “IC50 for the inhibition of proliferation, SW480 cells (c-Met expression Low), CellTiter Glo, 6 days” value is above 200000 pM. Further, in test [3], the “Endocytosis ratio% at 0 h, EBC-1 cells, 20 nM, flow cytometry” value was determined as 0%; the “Endocytosis ratio% at 0.5 h, EBC-1 cells, 20 nM, flow cytometry” value amounted to 30.2%; the “Endocytosis ratio% at 2 h, EBC-1 cells, 20 nM, flow cytometry” value stood at 61%; the “Endocytosis ratio% at 4 h, EBC-1 cells, 20 nM, flow cytometry” value was 80.6%. Further, the “Endocytosis ratio% at 24 h, EBC-1 cells, 20 nM, flow cytometry” value in test [3] amounted to 98.2%.

B2: Ab-10 humanized antibody (antibody, human IgG2, kappa, V domains shown)
VH: QVQLVESGGGVVQPGRSLRLSCAASGFSLSNYGVHWVRQAPGKGLEWLAVIWSGGSTNYAAAFVSRLTISKDNSKNTVYLQMNSLRAEDTAVYYCARNHDNPYNYAMDYWGQGTTVTVSS
VL: DIVLTQSPDSLAVSLGERATINCRADKSVSTSTYNYLHWYQQKPGQPPKLLIYLASNLASGVPDRFSGSGSGTDFTLTISSLQAEDVAVYYCQHSRDLPPTFGQGTKLEIKR
notes: Humanized anti-c-Met antibody; Embodiments name human IgG2 and kappa constant regions; also called naked antibody Ab-10; Ab-10 Naked antibody
With B2, in test [2], the “IC50 for the inhibition of proliferation, EBC-1 cells (c-Met expression High), CellTiter Glo, 6 days” value amounted to 51 pM; the “IC50 for the inhibition of proliferation, HCT116 cells (c-Met expression Low), CellTiter Glo, 6 days” value is above 200000 pM; the “IC50 for the inhibition of proliferation, Hs 746T cells (c-Met expression High), CellTiter Glo, 6 days” value was 134 pM; the “IC50 for the inhibition of proliferation, MKN-45 cells (c-Met expression High), CellTiter Glo, 6 days” value worked out at 176 pM. Besides, in test [2], the “IC50 for the inhibition of proliferation, NCI-H441 cells (c-Met expression Moderate), CellTiter Glo, 6 days” value was above 200000 pM; the “IC50 for the inhibition of proliferation, NCI-H1299 cells (c-Met expression Low), CellTiter Glo, 6 days” value is above 200000 pM; the “IC50 for the inhibition of proliferation, NCI-H1993 cells (c-Met expression High), CellTiter Glo, 6 days” value was found to be 203 pM; the “IC50 for the inhibition of proliferation, NCI-N87 cells (c-Met expression Low), CellTiter Glo, 6 days” value is above 200000 pM. The “IC50 for the inhibition of proliferation, SW480 cells (c-Met expression Low), CellTiter Glo, 6 days” value in test [2] was above 200000 pM. This molecule registered a Kd in test [4] of 47900 pM. For the same molecule, in test [3], the “Endocytosis ratio% at 0 h, EBC-1 cells, 20 nM, flow cytometry” value was 0%; the “Endocytosis ratio% at 0.5 h, EBC-1 cells, 20 nM, flow cytometry” value was determined as 24.5%; the “Endocytosis ratio% at 2 h, EBC-1 cells, 20 nM, flow cytometry” value came out at 62.6%; the “Endocytosis ratio% at 4 h, EBC-1 cells, 20 nM, flow cytometry” value stood at 83%. Further, the “Endocytosis ratio% at 24 h, EBC-1 cells, 20 nM, flow cytometry” value in test [3] came out at 98.4%.
